Target: T1, TaNAC016-3A (Triticum aestivum, UniProt A0A3B6EBU1 1-353)
T1 sequence: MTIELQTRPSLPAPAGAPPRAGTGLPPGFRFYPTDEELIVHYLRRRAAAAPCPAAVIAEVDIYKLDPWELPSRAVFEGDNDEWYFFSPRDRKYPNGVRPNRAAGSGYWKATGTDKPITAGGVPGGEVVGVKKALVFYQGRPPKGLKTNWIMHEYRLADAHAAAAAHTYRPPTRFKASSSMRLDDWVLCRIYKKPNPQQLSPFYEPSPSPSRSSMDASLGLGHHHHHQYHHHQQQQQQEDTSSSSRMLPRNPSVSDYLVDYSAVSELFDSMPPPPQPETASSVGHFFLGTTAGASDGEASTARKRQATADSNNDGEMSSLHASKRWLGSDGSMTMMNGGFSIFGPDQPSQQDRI
Assay: EMSA

B1: proTaPAO-4B EMSA probe (PAOsite2) (dsDNA)
DNA 1: AAGGATGGCCGGCACTTACGCAACCTGTCCTTAGACCCCCACAGAAC
DNA 2: GTTCTGTGGGGGTCTAAGGACAGGTTGCGTAAGTGCCGGCCATCCTT
B1: binds.
